Assay in all cases: fluorescence polarization
Holding throughout (conditions): internal 6-carboxyfluorescein in backbone between U12 and C13 (central tetraloop bases); 25 mM MOPS pH 7.4, 150 mM KCl, 2 mM DTT, 2 mM MgCl2, 0.01% Triton X-100, 1 nM RNA, room temperature, 1 h
(In general: Polarisation of emitted light reports the rotation of a fluorescent probe.)

Data set [1] deals with T1, RIG-I WT (Homo sapiens) (UniProt O95786).
T1 sequence: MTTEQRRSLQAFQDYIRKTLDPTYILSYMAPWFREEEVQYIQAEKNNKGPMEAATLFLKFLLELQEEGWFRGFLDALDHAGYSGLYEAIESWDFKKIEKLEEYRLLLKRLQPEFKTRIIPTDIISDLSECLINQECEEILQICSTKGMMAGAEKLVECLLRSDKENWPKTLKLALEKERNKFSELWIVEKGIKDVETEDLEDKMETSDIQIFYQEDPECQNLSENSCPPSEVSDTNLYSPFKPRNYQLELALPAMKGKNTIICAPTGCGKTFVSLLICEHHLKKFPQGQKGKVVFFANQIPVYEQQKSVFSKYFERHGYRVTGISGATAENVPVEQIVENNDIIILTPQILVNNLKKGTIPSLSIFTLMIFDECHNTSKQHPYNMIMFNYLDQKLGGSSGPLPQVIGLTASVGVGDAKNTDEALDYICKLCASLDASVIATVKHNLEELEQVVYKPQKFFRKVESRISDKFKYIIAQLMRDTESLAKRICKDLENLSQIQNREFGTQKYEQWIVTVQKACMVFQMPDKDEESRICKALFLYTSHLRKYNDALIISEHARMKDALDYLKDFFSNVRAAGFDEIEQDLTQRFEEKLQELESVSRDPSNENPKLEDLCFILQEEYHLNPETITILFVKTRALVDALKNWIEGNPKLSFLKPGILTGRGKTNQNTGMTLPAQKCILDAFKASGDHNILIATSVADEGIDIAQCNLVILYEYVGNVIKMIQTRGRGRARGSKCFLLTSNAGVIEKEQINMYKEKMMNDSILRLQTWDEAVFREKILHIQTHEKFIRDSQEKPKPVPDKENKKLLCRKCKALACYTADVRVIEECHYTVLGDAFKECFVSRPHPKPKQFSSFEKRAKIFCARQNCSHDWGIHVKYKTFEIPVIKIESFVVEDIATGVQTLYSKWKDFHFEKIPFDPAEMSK

Data set [2] concerns the target T2, RIG-I K788A K788A (Homo sapiens) (UniProt O95786).
T2 sequence: T1 sequence with K788A

In data set [3] the target is T3, RIG-I Q784A/R791A Q784A;R791A (Homo sapiens) (UniProt O95786).
T3 sequence: T1 sequence with Q784A, R791A

Residue numbers refer to the chain shown, from its start.

Broadly, the Kd is the concentration at which binding is half-saturated. In the case of GGACGUACGUUUCGACGUACGUCC [5'OH10L-F], the results for the Kd in data set [1], in data set [2] and in data set [3] were 25 nM, 21.6 nM and 91.4 nM, respectively.
